Results published in US20100015126A1, “Methods of Binding of Cross-Beta Structures By Chaperones” (priority 2006, published 2010).

Target: T1, human mitochondrial HSP60 (Homo sapiens, UniProt P10809)
T1 construct: Dr. W. van Eden, Utrecht University; host or cells: E. coli
Assay: ELISA: binding of HSP60 to immobilized (misfolded) protein ligands
Description: Recombinant human HSP60 with N-terminal His-tag was a kind gift of Dr. R. van der Zee and Prof. Dr. W. van Eden (Institute of Infectious Diseases and Immunology, Faculty of Veterinary Medicine, Utrecht University, Utrecht, The Netherlands), and was supplied in lyophilized form. The HSP60 was produced in E. coli and purified using Nickel-Sepharose. The HSP60 was lyophilized from 20-40 mM ammonium-bicarbonate solution, after purification, and stored at −20° C. The construct lacks the mitochondrial signal sequence. […] Before use, the lyophilized protein is dissolved at room temperature at 1 mg/ml in 20-40 mM NH4HCO3, resulting in a pH of 7.0. Aliquots are stored at −20° C. or −80° C. The mitochondrial HSP60 is a functional dimer of heptamers (MW(HSP60 monomer)=˜58 kDa), and is involved in multimer protein assembling and aids in transport of unfolded proteins across membranes. For the binding studies, at two occasions separate HSP60 solutions were prepared originating from the same batch of purified protein, lyophilized in separate Eppendorf cups.
Binding of chaperones to immobilized (misfolded) protein ligands was determined using an enzyme linked immuno sorbent assay (ELISA) approach. […] After 5 washes with wash buffer followed by two washes with PBS, binding of antibodies was assessed. […] Plates were read at 450 nm. […]

T1 sequence (P10809 27-573): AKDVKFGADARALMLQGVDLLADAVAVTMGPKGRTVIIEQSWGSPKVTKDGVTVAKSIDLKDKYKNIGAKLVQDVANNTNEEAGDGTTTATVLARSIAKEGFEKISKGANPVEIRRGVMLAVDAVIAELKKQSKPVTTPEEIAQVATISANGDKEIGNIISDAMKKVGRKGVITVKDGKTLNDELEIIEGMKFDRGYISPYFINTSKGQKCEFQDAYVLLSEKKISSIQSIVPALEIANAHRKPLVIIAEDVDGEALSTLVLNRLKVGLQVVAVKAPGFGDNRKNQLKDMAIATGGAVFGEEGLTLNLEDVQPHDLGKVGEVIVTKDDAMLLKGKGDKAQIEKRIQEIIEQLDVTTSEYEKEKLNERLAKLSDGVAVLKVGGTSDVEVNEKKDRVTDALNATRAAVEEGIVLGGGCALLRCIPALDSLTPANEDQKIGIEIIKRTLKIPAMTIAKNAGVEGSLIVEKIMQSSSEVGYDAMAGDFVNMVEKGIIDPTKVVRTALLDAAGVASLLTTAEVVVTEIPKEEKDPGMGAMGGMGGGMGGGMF

B1: dOVA standard: heat-denatured chicken ovalbumin (protein)
chain: GSIGAASMEFCFDVFKELKVHHANENIFYCPIAIMSALAMVYLGAKDSTRTQINKVVRFDKLPGFGDSIEAQCGTSVNVHSSLRDILNQITKPNDVYSFSLASRLYAEERYPILPEYLQCVKELYRGGLEPINFQTAADQARELINSWVESQTNGIIRNVLQPSSVDSQTAMVLVNAIVFKGLWEKAFKDEDTQAMPFRVTEQESKPVQMMYQIGLFRVASMASEKMKILELPFASGTMSMLVLLPDEVSGLEQLESIINFEKLTEWTSSNVMEERKIKVYLPRMKMEEKYNLTSVLMAMGITDVFSSSANLSGISSAESLKISQAVHAAHAEINEAGREVVGSAEAGVDAASVSEEFRADHPFLFCIKHIATNAVLFFGRCVSP
Binding of concentration series of HSP60 to coated ligand: has been established
